Assay results as given in the supplement of paper PMC12338614.
± gives the uncertainty stated by the source.

B1: library; numbered along this chain (parent)
chain: MEVVDPQQLGMFTEGELMSVGMDTFIHRIDSTEVIYQPRRKRAKLIGKYLMGDLLGEGSYGKVKEVLDSETLCRRAVKILKKKKLRRIPNGEANVKKEIQLLRRLRHKNVIQLVDVLYNEEKQKMYMVMEYCVCGMQEMLDSVPEKRFPVCQAHGYFCQLIDGLEYLHSQGIVHKDIKPGNLLLTTGGTLKISDLGVAEALHPFAADDTCRTSQGSPAFQPPEIANGLDTFSGFKVDIWSAGVTLYNITTGLYPFEGDNIYKLFENIGKGSYAIPGDCGPPLSDLLKGMLEYEPAKRFSIRQIRQHSWFRKKHPPAEAPVPIPPSPDTKDRWRSMTVVPYLEDLHGADEDEDLFDIEDDIIYTQDFTVPGQVPEEEASHNGQRRGLPKAVCMNGTEAAQLSTKSRAEGRAPNPARKACSASSKIRRLSACKQQ

Variants of: B1
Experiment: STK11 functional score (HeLa growth suppression), rescaled enrichment; synonymous median = 1, nonsense median = 0 (normalised score)
Details: with HeLa; variant type: missense
Summary of the method: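 The functional score takes the post/pre-selection log ratio, corrects it to wild type, rescales it to synonymous and nonsense medians, and merges it over codons and replicate transfections, with error from bootstrapping. Counts came from tiled gDNA amplicons sequenced on NextSeq (~2 million reads per tile). The libraries were POPCode codon-randomised, codon-optimised STK11 integrated by Bxb1 at an AAVS1 landing pad in HeLa, three regions with three transfections each.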

Row | Variant | STK11 functional score
1 | L102Q | 1.48 ± 0.65
2 | E121W | 0.251 ± 0.073
3 | A43M | 1.57 ± 0.33
4 | I88M | 0.899 ± 0.094
5 | L290W | 0.691 ± 0.1
6 | P6I | 1.61 ± 0.19
7 | G227T | 1.67 ± 0.13
8 | T71A | 1.48 ± 0.31
9 | E376I | 1.54 ± 0.28
10 | V63L | 0.458 ± 0.099
11 | H174T | 1.63 ± 0.19
12 | W308F | 1.02 ± 0.078
13 | T395V | 1.04 ± 0.19
14 | S419A | 1.37 ± 0.38
15 | N259M | 1.35 ± 0.12
16 | N412S | 1.48 ± 0.23
17 | R331W | 1.49 ± 0.27
18 | A410W | 1.68 ± 0.24
19 | Y166D | -0.0245 ± 0.5
20 | T402W | 1.44 ± 0.23
21 | R333D | 1.62 ± 0.25
22 | R425I | 0.977 ± 0.41
23 | G180T | 1.53 ± 0.19
24 | R301G | 1.48 ± 0.25

Row | Variant | STK11 functional score
25 | D207P | 1.01 ± 0.7
26 | L72R | 0.386 ± 0.11
27 | S240R | 0.823 ± 0.1
28 | K312P | 1.37 ± 0.16
29 | R405C | 1.3 ± 0.34
30 | Q37P | 1.16 ± 0.21
31 | S419V | 0.892 ± 0.23
32 | G288V | 0.518 ± 0.45
33 | S213W | 1.14 ± 0.092
34 | D207Y | 0.314 ± 0.099
35 | H27R | 1.03 ± 0.18
36 | K178E | -0.00538 ± 0.11
37 | K423F | 1.07 ± 0.33
38 | S421V | 1.38 ± 0.18
39 | A389T | 1.25 ± 0.3
40 | D327C | 1.27 ± 0.32
41 | G381L | 1.24 ± 0.15
42 | S299D | 1.18 ± 0.16
43 | E256Y | 1.4 ± 0.16
44 | K108T | 1.33 ± 0.28
45 | K44G | 0.448 ± 0.26
46 | G381K | 1.59 ± 0.29
47 | V128A | 0.438 ± 0.1
48 | G268V | 0.743 ± 0.19

Row | Variant | STK11 functional score
49 | M18D | 0.127 ± 0.19
50 | L54Y | 1.47 ± 0.19
51 | G15V | 1.1 ± 0.24
52 | T71N | 0.961 ± 0.15
53 | R409T | 1.47 ± 0.28
54 | Y362C | 1.33 ± 0.15
55 | K82E | 1.36 ± 0.75
56 | I274W | 0.0744 ± 0.12
57 | R426V | 1.62 ± 0.26
58 | Q112N | 1.55 ± 0.18
59 | K287E | 1.62 ± 0.27
60 | Q123C | 1.35 ± 0.34
61 | L201K | 1.64 ± 0.14
62 | N181W | -0.0742 ± 0.09
63 | V133N | 1.17 ± 0.15
64 | L117H | 1.05 ± 0.37
65 | F309S | 0.538 ± 0.12
66 | G408S | 1.59 ± 0.26
67 | E265V | 1.41 ± 0.37
68 | P413C | 1.17 ± 0.41
69 | K235P | 1.65 ± 0.36
70 | P411N | 1.55 ± 0.18
71 | A205V | 1.09 ± 0.32
72 | A200I | 1.31 ± 0.23

Row | Variant | STK11 functional score
73 | D330Q | 0.163 ± 0.59
74 | I172V | 1.21 ± 0.39
75 | F204R | 0.931 ± 0.16
76 | G370P | 1.59 ± 0.27
77 | S19I | 1.34 ± 0.41
78 | A377H | 0.0602 ± 0.3
79 | H27Q | 0.792 ± 0.18
80 | R310H | 1.5 ± 0.18
81 | M18A | 1.69 ± 0.16
82 | Q399R | 0.852 ± 0.19
83 | C430F | 1.48 ± 0.14
84 | N181C | -0.0246 ± 0.18
85 | L353D | 1.61 ± 0.16
86 | Q399K | 0.826 ± 0.39
87 | P323W | 0.993 ± 0.6
88 | I88E | 1.53 ± 0.18
89 | A397M | 1.62 ± 0.2
90 | I111L | 0.392 ± 0.14
91 | G242E | 0.274 ± 0.12
92 | L252Y | 0.274 ± 0.59
93 | L140D | 0.0191 ± 0.11
94 | L117N | 1.44 ± 0.56
95 | V372W | 1.09 ± 0.29
96 | V320A | 1.55 ± 0.2

Row | Variant | STK11 functional score
97 | P321H | 1.21 ± 0.32
98 | S31A | 1.44 ± 0.17
99 | W308Y | -0.119 ± 0.11
100 | T13W | 0.14 ± 0.079
101 | E342C | 1.21 ± 0.35
102 | S193E | 1.54 ± 0.33
103 | G242S | 0.0147 ± 0.098
104 | L101I | 1.06 ± 0.38
105 | S193W | 0.0192 ± 0.15
106 | V110G | 0.297 ± 0.079
107 | I322A | 1.53 ± 0.16
108 | M392N | 0.559 ± 0.12
109 | Q382E | 1.2 ± 0.43
110 | S428E | 1.63 ± 0.13
111 | K269H | 1.49 ± 0.22
112 | M51R | 1.16 ± 0.5
113 | R405I | 1.6 ± 0.22
114 | G196R | -0.0503 ± 0.77
115 | K96V | 0.667 ± 0.17
116 | N226T | 1.26 ± 0.12
117 | L290P | 0.264 ± 0.16
118 | Y272S | 0.837 ± 0.15
119 | A205E | 1.64 ± 0.21
120 | G188W | 0.946 ± 0.11

Row | Variant | STK11 functional score
121 | L201A | 1.59 ± 0.23
122 | S216I | 0.119 ± 0.093
123 | G276V | 1.05 ± 0.19
124 | K287L | 0.865 ± 0.14
125 | L67W | 0.675 ± 0.08
126 | R40S | 0.887 ± 0.15
127 | Y261G | 0.901 ± 0.2
128 | K416N | 0.923 ± 0.4
129 | C278N | 1.12 ± 0.22
130 | M11V | 1.55 ± 0.48
131 | K329I | 1.25 ± 0.46
132 | V390E | 1.44 ± 0.34
133 | P373N | 1.59 ± 0.28
134 | L80Q | 1.45 ± 0.09
135 | M129G | 0.986 ± 0.11
136 | F204H | 1.67 ± 0.41
137 | H379I | 1.53 ± 0.16
138 | V243G | 0.469 ± 0.16
139 | K84V | 0.24 ± 0.085
140 | K122H | 1.68 ± 0.18
141 | R405D | 0.895 ± 0.18
142 | L285R | -0.201 ± 0.1
143 | T395E | 1.33 ± 0.25
144 | D30C | 1.44 ± 0.51

Row | Variant | STK11 functional score
145 | K175V | 0.466 ± 0.1
146 | K48L | 1.3 ± 0.17
147 | V173A | 0.314 ± 0.31
148 | L245D | -0.177 ± 0.17
149 | P217E | 0.536 ± 0.41
150 | E265L | 1.18 ± 0.42
151 | A414K | 1.55 ± 0.26
152 | L341C | 1.38 ± 0.17
153 | R39T | 0.548 ± 0.26
154 | R304I | 0.364 ± 0.3
155 | I303C | 0.545 ± 0.16
156 | A153Y | -0.0988 ± 0.073
157 | S142C | 1.17 ± 0.2
158 | I88S | 1.16 ± 0.26
159 | M18H | 1.37 ± 0.18
160 | H345F | 1.41 ± 0.33
161 | A414G | 1.21 ± 0.26
162 | M11C | 1.69 ± 0.36
163 | I172P | -0.291 ± 0.062
164 | Y340C | 1.63 ± 0.13
165 | N119E | 0.994 ± 0.093
166 | K178P | -0.0986 ± 0.093
167 | D207R | 1.55 ± 0.24
